Measurements from US20220349880.

Columns and labels:
[1] = test system: Peptide H-4: H2N-(CH2)4-CO-Pro-Val-Gly-Phe-Val-Ala-NHCH2-Fc
[2] = test system: Peptide H-15: H2N-(CH2)4-CO-Pro-Leu-Ala-Phe-Val-Ala-NH-CH2-Fc
[3] = test system: Peptide H-6: H2N-(CH2)4-CO-Pro-Leu-Gly-Phe-Val-Ala-NHCH2-Fc
[4] = test system: Peptide H-16: H2N-(CH2)4-CO-Pro-Leu-Ala-Gly-Val-Ala-NH-CH2-Fc
[5] = test system: Peptide H-5: H2N-(CH2)4-CO-Ala-Pro-Leu-Arg-Phe-Gly-Ala-Ala-NHCH2-Fc
[6] = test system: Peptide H-7: H2N-(CH2)4-CO-Pro-Leu-Gly-Gly-Val-Ala-NHCH2-Fc
[7] = test system: Peptide H-3: H2N-(CH2)4-CO-Pro-Leu-Arg-Phe-Gly-Ala-NH-CH2-Fc
[8] = test system: Peptide H-2: H2N-(CH2)4-CO-Pro-Thr-Arg-Phe-Val-Gly-NHCH2-Fc
[9] = test system: Peptide H-1: H2N-(CH2)4-CO-Lys-Val-Arg-Phe-Val-Gly-NHCH2-Fc

recombinant human cathepsin B (rhCB), activated by incubation in 25 mM MES buffer (pH 5.0) containing 5 mM DTT for 15 min
proteolysis rate (electrochemical measurements, fluorogenic assays and HPLC-MS analysis); one of the 'other candidates' with a lower rate [1]: three peptides H-3, H-15 and H-16 were selected for this study due to the higher proteolysis rates by cathepsin B compared to other candidates | proteolysis rate (electrochemical measurements, fluorogenic assays and HPLC-MS analysis) [2]: three peptides H-3, H-15 and H-16 were selected for this study due to the higher proteolysis rates by cathepsin B compared to other candidates | proteolytic activity among about 30 synthesized peptides [2]: has shown the highest proteolytic activity by cathepsin B | proteolysis rate (electrochemical measurements, fluorogenic assays and HPLC-MS analysis); one of the 'other candidates' with a lower rate [3]: three peptides H-3, H-15 and H-16 were selected for this study due to the higher proteolysis rates by cathepsin B compared to other candidates | proteolysis rate (electrochemical measurements, fluorogenic assays and HPLC-MS analysis) [4]: three peptides H-3, H-15 and H-16 were selected for this study due to the higher proteolysis rates by cathepsin B compared to other candidates | proteolysis rate (electrochemical measurements, fluorogenic assays and HPLC-MS analysis); one of the 'other candidates' with a lower rate [5]: three peptides H-3, H-15 and H-16 were selected for this study due to the higher proteolysis rates by cathepsin B compared to other candidates | proteolysis rate (electrochemical measurements, fluorogenic assays and HPLC-MS analysis); one of the 'other candidates' with a lower rate [6]: three peptides H-3, H-15 and H-16 were selected for this study due to the higher proteolysis rates by cathepsin B compared to other candidates | proteolysis rate (electrochemical measurements, fluorogenic assays and HPLC-MS analysis) [7]: three peptides H-3, H-15 and H-16 were selected for this study due to the higher proteolysis rates by cathepsin B compared to other candidates | proteolysis rate (electrochemical measurements, fluorogenic assays and HPLC-MS analysis); one of the 'other candidates' with a lower rate [8]: three peptides H-3, H-15 and H-16 were selected for this study due to the higher proteolysis rates by cathepsin B compared to other candidates | proteolysis rate (electrochemical measurements, fluorogenic assays and HPLC-MS analysis); one of the 'other candidates' with a lower rate [9]: three peptides H-3, H-15 and H-16 were selected for this study due to the higher proteolysis rates by cathepsin B compared to other candidates
